Values of other authors as cited in article PMC2375062.

Target: uPA (Homo sapiens) (UniProt P00749)

## glu-plasminogen (from UniProt P00747)
  Kd: 50 nM
